Assay results from the Immune Epitope Database (IEDB).

Key:
HLA-A*02:01 = assay: IEDB peptide-MHC binding, purified MHC/competitive/radioactivity; ≥ and ≤ were set here for values at or beyond the usual limits of such assays; settings: source organism: Toxoplasma gondii
HLA-B*07:02 = assay: as above; settings: source organism: Toxoplasma gondii
HLA-A*11:01 = assay: as above; settings: source organism: Toxoplasma gondii
HLA-B*15:02 = assay: IEDB peptide-MHC binding, purified MHC/direct/fluorescence; filed as Kd, often an IC50 or EC50 that approximates it; ≥ and ≤ were set here for values at or beyond the usual limits of such assays; settings: source organism: dengue virus type 4
HLA-B*46:01 = assay: as above; settings: source organism: dengue virus type 4
HLA-B*57:01 = assay: IEDB peptide-MHC binding, purified MHC/competitive/radioactivity; filed as Kd, often an IC50 or EC50 that approximates it; ≥ and ≤ were set here for values at or beyond the usual limits of such assays; settings: source organism: Dengue virus 4 Philippines/H241/1956
HLA-A*01:01 = assay: as above; settings: source organism: Dengue virus 4 Philippines/H241/1956
HLA-A*30:02 = assay: as above; settings: source organism: Dengue virus 4 Philippines/H241/1956
HLA-A*32:01 = assay: as above; settings: source organism: Dengue virus 4 Philippines/H241/1956

Sequence: STFWPCLLR
- IC50 (HLA-A*02:01): 27000 nM
- IC50 (HLA-B*07:02): ≥ 50000 nM
- IC50 (HLA-A*11:01): 9.3 nM

Sequence: RTWAYHGSY
- Kd (HLA-B*15:02): ≥ 20000 nM
- Kd (HLA-B*46:01): ≥ 20000 nM
- Kd (HLA-B*57:01): 15.8 nM
- Kd (HLA-A*01:01): 1280 nM
- Kd (HLA-A*30:02): 0.19 nM
- Kd (HLA-A*32:01): 1.46 nM
